From the supplement of paper PMC9170038

Test system: K4 kissing-loop RNA reporter
Experiment: apparent KD of K4 kissing-loop reporter; higher = weaker reporter binding
Conditions: Eterna round: R107
Experimental: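 RNA-MaP round R107: designed RNA switches with theophylline, tryptophan, arginine or FMN aptamers are transcribed on-chip within common flanks. They are titrated with a labelled K4 kissing-loop RNA reporter in RNA-MaP buffer (100 mM Tris pH 7.5, 80 mM KCl, 4 mM MgCl2), without ligand or with the indicated ligand. Median apparent KD per design.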

[1] = input ligand: theophylline 20 uM
[2] = input ligand: tryptophan 2.4 mM
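Also: bound reporter read as fluorescence of individual clusters on recovered sequencing chips by microscopy, with normalized cluster intensities fitted with a binding model.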

Sequence | apparent KD of K4 kissing-loop reporter (input ligand: FMN 200 uM) [nM] | apparent KD of K4 kissing-loop reporter (input ligand: arginine 13.2 mM) [nM] | apparent KD of K4 kissing-loop reporter (input ligand: none) [nM] | apparent KD of K4 kissing-loop reporter [1] [nM] | apparent KD of K4 kissing-loop reporter [2] [nM]
AUGGUAUUGCGAGGAUAUCCUUCAAACGUGACACUAACGGCAGUGAUGUUGCCGGCGUCGAUCAGAGGAGAAGGCGCGGUGUUAU [Exclusion FMN B GF 23] | 118 | 117 | 122 | 125 | 119
AUGUCUUAUAAACUCGUGGUUUCGAUCGAUACCAGUAGCGAGAGUUACCCUUGGCAGCGACAUGAGUGAUGUUCAUGUACGAAGA [KL-XTheoA4] | 96.1 | 89 | 94.3 | 90.2 | 92.9
AUUAAUAUCACGGCCGCCACUGAAUAUUGUUUUUAUAUUUAGAAAUCUUGCCAGUGAUGUUGGAUCAGGACCGGGUGAGUUUAUA [JR_SSTryptoB_Sub006] | 613 | 439 | 463 | 424 | 444
AUUCGUUUAUGUGAUACCAGACUUUGCAGUGAUGUUGCUUUAAUUAAAGAUGUUUAGUUUGUCCCUUGGCAGCACUAUUUAUUUA [JR_SSTheophyB_Sub001] | 54 | 113 | 68.4 | 129 | 48.8
AUUUGUUUAUGUGAUACCAGACUUUGCAGUGAUGUUGCAUUUAUUUUAGAAGAAUAGUUUGUCCCUUGGCAGCACUAUGUAUUUA [JR_SSTheophyB_Sub006] | 44.9 | 98.2 | 49.3 | 80.7 | 41.5
AUUUUUUUGUCAGGAUAUUAGUAUGCUUUUGGUUUGUUAGUGAUGUUGAUAUUUUGUUUAUGUAUUUAAGAAGGGAUUUAGCGGU [etvuumullin] | 409 | 276 | 362 | 371 | 255
AUUUUUUUGUCAGGAUAUUAGUGUGCGUUUGGUUUGUUAGUGAUGUUGAUAUUUGGUUUAUGUAUUUAAGAAGGGAUUUAGCGGU [dhbbtemullin] | 557 | 480 | 562 | 582 | 357
CAAACGUGCGGUAGGUUCAAGCGCUGGGAAGGAGCGCAGAUGACUGCAGGUAGGUCGCCCAGUGAUGUUGGGCUUUCCACCUACG [Dilausma] | 138 | 123 | 119 | 138 | 99.9
CACAGAUCCUAAGGAUAUGGAGUGAUGUUCGCAAGUUCUUGGUGUGCAUUCAUCUGUCCUAUCAACCCAGAAGGUAGGAAGUCAC [theeternabot_exclusion_KL_FMN_B_1] | 607 | 516 | 550 | 993 | 604
CACCAUGAAUUCUCUAGGAGUGAUGUUUUUCGAGGACCGGUACGGCCGCCACUCGGACGAGGACCGUGGGAGCGGCGAACCGACU [ddfgmullin] | 172 | 74.7 | 208 | 334 | 150
CAGGCGACUAUCGAUACCAGAUGAUAUCGACUACUUGAGUGAUGUUCGAUUAAAGGCAUUAUCCCUUGGCAGCGACUGGACACAU [theeternabot_sameState_KL_Theo_B_24] | 706 | 505 | 667 | 659 | 414
CAGGUGCUGAUGCGGUGGCCGGUGGUCGUGCGAGGACCGGUACGGCCGCCACUCGCAUGAGUGAUGUUCAUGUGUCGUCGUCGUC [whbob_EX_Tryp_A_t2] | 229 | 136 | 188 | 192 | 223
CAUACGCAUGGAGGAUAUGAGAUUACUCGUAUCAUUUAAUAUUCUCAGUGAUGUUGAGAUUUGGGCUCAGAAGGCCAUGUGUAUG [Ex FMN B 16] | 393 | 261 | 290 | 324 | 288
CAUACGCAUGGAGGAUAUGAGAUUUCUCAUGUCAUUUAAUAUUCUCAGUGAUGUUGAGAAUUUGGCUCAGAAGGCCAUGUGUAUG [Ex FMN B 20] | 254 | 465 | 508 | 426 | 403
CAUAGGAAACUAUGUUUCUCUCUUACUGAAGGAGCGCGUGAAAACGCAGGUAGGUCGCAGAAUUUGAGAGUGAUGUUCUCAAUAA [Ex Arginine A K4 13] | 114 | 149 | 151 | 167 | 116
CAUGUGUCUAUUACGAUGGAUACAUAUACUGAGGAUAUCACAUUUAUGAGAAGGCAGUAAACUGCGAGUGAUGUUCGCAGUACGU [FMN A SS t8] | 159 | 204 | 214 | 316 | 248
CCAAGCGUCAGCGAUACCAGAAUUCUAGUGAUGUUAGGUUCUGUCAUUGUACUAGCAGUGUUCCCUUGGCAGCGCGUGAUAGGCA [theeternabot_exclusion_KL_Theo_B_16] | 170 | 121 | 140 | 173 | 138
CCAGAAUGAUGAAGAUGAUAAAUUACUGAAGGAGCGCAUAUAGUUGCAGGUAGGUCGCGGUGAAUAAGUAUAGUGAUGUUAUACC [SSArgA.Ac] | 265 | 167 | 221 | 217 | 204
